Results on 24 molecules are retold here after paper PMC2193072 (The Journal of Experimental Medicine, 1999).

Like-named read-outs stand apart in the source and are kept apart here. No end group written: not given here.

The target in experiment [1] is soluble I-A^g7 (I-Aα–Fos / I-Aβ–Jun heterodimer) (mouse (NOD) | not stated). The experiment can be described thus: peptide dissociation assay.
For experiment [2] the target is unchanged. The experiment can be described thus: peptide dissociation assay. This is another data set of the same source.
For experiment [3] the target is unchanged. The experiment is described as follows: antibody-capture peptide binding assay with europium-streptavidin.
For experiment [4] the target is unchanged. Described as above. This is another data set of the same source.
Experiment [5] concerns I-A^g7. The class given is binding, NOD mice. To be noted: pH 5, competitor 8 nM–25 μM vs biotinylated transferrin peptide (1 μM).
The subject of experiment [6] is I-A^g7. The class given is binding, NOD mice. To be noted: biotinylated peptide, pH 5.0, 37°C.

In the case of “Murine CLIP (86–100) peptide, biotinylated”, in experiment [1], the dissociation time (t1/2) amounted to 1 h.

As to “Murine serum albumin (560–574) peptide, biotinylated”, the dissociation time (t1/2) in experiment [2] and in experiment [1] was more than 72 h in each case.

With “Murine CLIP analogue with V at position 98 (P9), unlabeled (from UniProt P04441 86-100) (peptide)”, the IC50 in experiment [3] came to 50 µM.

Murine CLIP (86–100) peptide, unlabeled: the 50% inhibitory concentration (IC50) in experiment [3] was 50 µM; in experiment [4], more than 125 µM.

For “Murine transferrin (55–68) peptide, biotinylated”, the dissociation time (t1/2) was more than 72 h in experiment [2] and 45 h in experiment [1].

For the molecule EEVDMTPADALDDFD [HSV-2 VP16 (430–444)], the “Binding to I-A^g7 in competition assay (in words)” value in the experiment with I-A^g7 [5] is given as “competed for binding of the biotinylated transferrin peptide at high peptide concentrations”. In addition, the “Binding to I-A^g7 in direct binding assay (in words), pH 5.0” value with I-A^g7 [6] was “little binding”.

Regarding PVSQMRMATPLLHRP [Murine CLIP analogue with H at position 98 (P9), unlabeled], the IC50 in experiment [3] is 4 µM; in experiment [4], more than 125 µM.

For PVSQMRMATPLLNRP [Murine CLIP analogue with N at position 98 (P9), unlabeled], the 50% inhibitory concentration (IC50) in experiment [3] stood at 80 µM; in experiment [4] it was 125 µM.

PVSQMRMATPLLYRP [Murine CLIP analogue with Y at position 98 (P9), unlabeled]: the concentration for half-maximal inhibition (IC50) in experiment [3] is more than 125 µM; in experiment [4], 60 µM.

As to PVSQMRMATPLLTRP [Murine CLIP analogue with T at position 98 (P9), unlabeled], the IC50 was more than 125 µM in experiment [3] and 40 µM in experiment [4].

With GCALLRCIPALDSLTPANED (cysteine pairing not given here; also: biotinylated, position not given here) [Human HSP60 (441–460) peptide, biotinylated], the values for the dissociation time (t1/2) in experiment [2] and in experiment [1] were 25 h and 14 h, respectively.

As to PVSQMRMATPLLWRP [Murine CLIP analogue with W at position 98 (P9), unlabeled], the 50% inhibitory concentration (IC50) in experiment [3] was 80 µM; in experiment [4] it was more than 125 µM.

For PVSQMRMATPLLRRP [Murine CLIP analogue with R at position 98 (P9), unlabeled], the IC50 in experiment [3] and in experiment [4] was more than 125 µM in each case.

As for PVSQMRMATPLLARP [Murine CLIP analogue with A at position 98 (P9), unlabeled], the half-maximal inhibitory concentration (IC50) came to 2 µM in experiment [3] and 15 µM in experiment [4].

For PVSQMRMATPLLCRP [Murine CLIP analogue with C at position 98 (P9), unlabeled], in experiment [3], the IC50 was 40 µM.

With PVSQMRMATPLLGRP [Murine CLIP analogue with G at position 98 (P9), unlabeled], the concentration for half-maximal inhibition (IC50) is 10 µM in experiment [3] and more than 125 µM in experiment [4].

PVSQMRMATPLLFRP [Murine CLIP analogue with F at position 98 (P9), unlabeled]: the results for the IC50 in experiment [3] and in experiment [4] were 80 µM and 50 µM, respectively.

Consider PVSQMRMATPLLLRP [Murine CLIP analogue with L at position 98 (P9), unlabeled], for which the IC50 is 40 µM in experiment [3] and more than 125 µM in experiment [4].

Consider PVSQMRMATPLLDRP (also: biotinylated, position not given here) [Murine CLIP 98D analogue, biotinylated], for which the dissociation time (t1/2) stood at 70 h in experiment [2] and 23 h in experiment [1].

Regarding PVSQMRMATPLLKRP [Murine CLIP analogue with K at position 98 (P9), unlabeled], the IC50 in experiment [3] and in experiment [4] was more than 125 µM each time.

As for PVSQMRMATPLLIRP [Murine CLIP analogue with I at position 98 (P9), unlabeled], the IC50 in experiment [3] and in experiment [4] was more than 125 µM in each case.

For the molecule PVSQMRMATPLLQRP [Murine CLIP analogue with Q at position 98 (P9), unlabeled], the IC50 is 25 µM in experiment [3] and more than 125 µM in experiment [4].

Regarding PVSQMRMATPLLPRP [Murine CLIP analogue with P at position 98 (P9), unlabeled], the IC50 in experiment [3] and in experiment [4] was more than 125 µM throughout.

Consider PVSQMRMATPLLSRP [Murine CLIP analogue with S at position 98 (P9), unlabeled], for which the IC50 in experiment [3] was found to be 40 µM.
